{
  "source": "patent US6153653A",
  "about": "“Choline compositions and uses thereof” (Protarga, Inc., priority 1997, dated 2000)",
  "origin": "cited, not measured here",
  "molecules": {"B1": {"name": "C84S tPA: tPA variants in which a cysteine at position 84 of the growth factor domain of native tPA is replaced by serine (protein, UniProt P00750 36-562, looked up, variant C84S)", "Tissue-type plasminogen …": "SYQVICRDEKTQMIYQQHQSWLRPVLRSNRVEYCWCNSGRAQCHSVPVKSCSEPRCFNGGTCQQALYFSDFVCQCPEGFAGKCSEIDTRATCYEDQGISYRGTWSTAESGAECTNWNSSALAQKPYSGRRPDAIRLGLGNHNYCRNPDRDSKPWCYVFKAGKYSSEFCSTPACSEGNSDCYFGNGSAYRGTHSLTESGASCLPWNSMILIGKVYTAQNPSAQALGLGKHNYCRNPDGDAKPWCHVLKNRRLTWEYCDVPSCSTCGLRQYSQPQFRIKGGLFADIASHPWQAAIFAKHRRSPGERFLCGGILISSCWILSAAHCFQERFPPHHLTVILGRTYRVVPGEEEQKFEVEKYIVHKEFDDDTYDNDIALLQLKSDSSRCAQESSVVRTVCLPPADLQLPDWTECELSGYGKHEALSPFYSERLKEAHVRLYPSSRCTSQHLLNRTVTDNMLCAGDTRSGGPQANLHDACQGDSGGPLVCLNDGRMTLVGIISWGLGCGQKDVPGVYTKVTNYLDWIRDNMRP"}},
  "details": "relative to native tPA",
  "data": [
    {"molecule": "B1", "values": [
      {"measurement": "in vivo half life (in words)", "setting": "in vivo", "result": "longer in vivo half life than native tPA"},
      {"measurement": "functional activity (in words)", "result": "retains the functional activity of native tPA"}
    ]}
  ]
}
